Test results from patent publication US20240117035A1 (published 2024).

Biological target: CD3 on CD3+ Jurkat cells (human, UniProt P07766 23-207)
Assay: FACS binding, Jurkat cells

Sequence of CD3 on CD3+ Jurkat cells (P07766 23-207): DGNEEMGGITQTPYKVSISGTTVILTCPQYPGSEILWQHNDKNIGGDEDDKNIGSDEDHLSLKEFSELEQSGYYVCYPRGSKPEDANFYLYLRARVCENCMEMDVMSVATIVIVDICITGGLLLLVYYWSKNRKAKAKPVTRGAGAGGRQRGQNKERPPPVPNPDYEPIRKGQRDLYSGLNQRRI

B1: m-13/CD3-v2 (antibody)
chain 1: QLQLQQSGTELVRPGSSVKISCKASGYAFSNYWMNWVKQRPGQGLEWIGQIYPGNGDTKYNGNFKGKATLTADKSSSTAYMQLSSLTSEDSADYFCARYYRGNCFDYWGQGTTLTVSS
chain 2: DIVLTQSPSSLTVTAGEKVTMSCKSSQSLLNSGNQKNYLTWYQQKPGQPPKLLIYWASTRDSGVPARFTGSGSGTDFTLTINSVQAEDLAVYYCQNAYTYPLTFGAGTKLEIK
chain 3: EVQLVESGGGLVKPGGSLKLSCAASGFTFSTYAMNWVRQAPGKGLEWVARIRSKYNNYATTYADSVKDRFTISRDDSKNTAYLQMNNLRTEDTAVYYCVRHGNWGNSYISYWAYWGQGTTVTVSS
chain 4: not shown
Q: B1 was tested. Which EC50 did it give?
A: The EC50 was 26.5 nM.
